Measurements: paper PMC13148777

What was measured:
[1] = molecular target: HAdV-D10 penton base (human adenovirus D 10 (HAdV-D10)); assay: cryo-EM structure; purified HAdV-D10 virions; symmetry expansion, focused classification and refinement of penton and fiber shaft without symmetry (C1); 4.6 Å global, fiber shaft about 10 Å; AlphaFold3 fiber-penton model fitted as a rigid body
[2] = molecular target: HAdV-D10 fiber protein (human adenovirus D 10 (HAdV-D10)); assay: as above

Q: Which stoichiometry N [1] does the source give for HAdV-D10 penton base (natural protein) here?
A: Its stoichiometry N is 5.

Q: “HAdV-D10 fiber protein (natural protein)” was tested. Which stoichiometry N [2] did it give?
A: The stoichiometry N was 3.
